According to US20080176263A1, “Materials and Methods for Efficient and Accurate Detection of Analytes” (University of Florida Research Foundation, Inc., priority 2006, published 2008):
“And” between values parts separate entries of the source, which are not always exact repeats. Equal entries are not always repeated.

Legend:
substrate TNO211 [1] = assay: Study #3: protease detection sensitivity, visual detection under UV; format: biochemical; conditions: within 10 minutes; from 17% and 28% of pronase activity
Experimental: To investigate the visual detection limits of pronase, standard curves (1000-0 ng) of the protease were reacted in 50, 100, and 200 uM substrate diluted in the assay buffer. Digital photographs were taken under white light and UV. These observations were compared to those obtained quantitatively using the fluorescence plate reader. The observed detection limits for pronase were used to calculate theoretical detection limits for MMP-2 and MMP-9 (17% and 28% as active as pronase, respectively).

substrate TNO211 [2] = assay: Study #1: time-to-detection of protease activity, cleavage of substrate TNO211 by fluorescence; format: biochemical; conditions: protease concentrations ≦100 ng/ml
Experimental: 1. Prepare a suitable standard curve diluted in enzyme buffer. Typically, a maximum of 50 ng/ml final protease concentration in the assay is used. Keep on ice until use.
2. Prepare the substrate solution by diluting the Stock Reconstituted Substrate (in DMSO) to 5.56 uM in the desired Assay Buffer (EDTA-free or EDTA-containing) to produce 90 ul of total EDTA-free or EDTA-containing Assay Buffer per well.
3. Pipette 90 ul substrate solution into each well to be assayed.
4. Take an initial fluorescence reading. To minimize interference due to the fluorescence of endogenous proteins in the samples, we routinely use excitation/emission wavelengths of 355/535 nm, respectively.
5. Pipette 10 ul standards, samples, or Enzyme Buffer (BLANK) into each well of the 96-well fluorescence assay plate.
6. Measure the change in fluorescence continuously until the standard range of interest is sufficiently resolved. Protect from light at RT or 37° C. between measurements.
7. Determine the best-fit curve relating the Change in Fluorescence (AF) vs.
[Protease]. […]
One hundred, 10, 1, and 0.1 ng of pronase, MMP-2, MMP-9, and clostridial collagenase were assayed in a total reaction volume of 100 ul for cleavage of substrate TNO211 as detected by fluorescence. The reactions were monitored for approximately one hour after the addition of the proteases.

B1: MMP-2: protease assayed for cleavage of substrate TNO211 (protein)
chain: YNFFPRKPKWDKNQITYRIIGYTPDLDPETVDDAFARAFQVWSDVTPLRFSRIHDGEADIMINFGRWEHGDGYPFDGKDGLLAHAFAPGTGVGGDSHFDDDELWTLGEGQVVRVKYGNADGEYCKFPFLFNGKEYNSCTDTGRSDGFLWCSTTYNFEKDGKYGFCPHEALFTMGGNAEGQPCKFPFRFQGTSYDSCTTEGRTDGYRWCGTTEDYDRDKKYGFCPETAMSTVGGNSEGAPCVFPFTFLGNKYESCTSAGRSDGKMWCATTANYDDDRKWGFCPDQGYSLFLVAAHEFGHAMGLEHSQDPGALMAPIYTYTKNFRLSQDDIKGIQELYGASPDIDLGTGPTPTLGPVTPEICKQDIVFDGIAQIRGEIFFFKDRFIWRTVTPRDKPMGPLLVATFWPELPEKIDAVYEAPQEEKAVFFAGNEYWIYSASTLERGYPKPLTSLGLPPDVQRVDAAFNWSKNKKTYIFAGDKFWRYNEVKKKMDPGFPKLIADAWNAIPDNLDAVVDLQGGGHSYFFKGAYYLKLENQSLKSVKFGSIKSDWLGC
theoretical detection limit calculated from pronase limit (substrate TNO211 [1]): approximately 735 ng
activity as % of pronase's observed activity (substrate TNO211 [2]): 17±4% and 17%
